Experiment: soluble on expression in E. coli; label from the status in PepcDB or PDB records

Row | Sequence | soluble on expression in E. coli
1 | MGSDKIHHHHHHMTSDVLVIAPFRRPTFRTAISHLYPVTEPWDSPPLITCGAIQEAGLEVDYVALQNIFNGYDPERDGRDLNEILGVLHPKVVIFSSDHFIPSRSTASIYGISLVSKIFKSRERPPLIGVCGRLATVAAQRLFAEVPEVDFAVIGESDGVIGEVVADLLAADMEETSRRHGYVHTRTAPARDIAYMGDVNDVALPAFALALPSIAQYRSRFGLEENPLPFSLRTSFGCKFKCRFCAGVPHWLDYRKKSPDRVQAELDAFLNQLGDQARISFLEDEIFTRDPEHVAAITALLKERNIYLDGLYTHSTLLTPEIAADLCTVADRVFTGLDNADDQILRKMGKGQLLDTVLDAVEKAQAASLKVHLEWIIGTPEETLDTLVTSLSTIFNLLSTHAVESINTYVYCPHPGTDYTVNAKKYRMRVLDTFDGIQESGGYPAFDTANLTRNQIYTAYLMSQLVIAEVTAARQHSSIPRAVVPASRSELLRLFGMIGEGQVAFDFDEAPVGRVSYPEGTSRA | not soluble
2 | DVQLQESGPGLVKPSQSLSLTCTVTGYSITSLYAWNWIRQFPGNKLEWMGYINYSGYTSYNPSLKSRISITRDTSKNQFFLQLHSVTTEDTATYSCTRGVDYFAMDYWGQGASVTVSSAKTTAPSVYPLAPVCGDTTGSSVTLGCLVKGYFPEPVTLTWNSGSLSSGVHTFPALLQSDLYTLSSSVTVTSNTWPSQSITCNVAHPASSTKVDKKIVPRD | soluble
3 | MKTASYAQSFSRAAKEYDAYAYLQQTVARELASWIEGMECESILDLGCGTGALWRALRFKPRFFTGVDLSMEMLDLHPQDPAIRLIQSDFNHPSLYEHSYDLIAASSSLQWSRDLAQSFDLIAKSAQNVAFAIFTSESLWEIHDYVDSHSPIPSKERIESLLKERFAGEFELKRYPLSFPSRVAMLSYLKGSGISGGRRLGFAQSKKLIQSAPFERLTFEVLFFVGKPLKADQK | not soluble
4 | NYASHTERQILEVSPVVADEALAQALECKPGTTWLRVRMLRVEKDAAHTPLCWNDAYMLPDVGQRIVGKIPNGSGLLCRIIENEAGIAVADIKQSIGATAIEGEMASRLGVAPGTPGLEITRLYVDRANTPFLITVNTYSAHKFR | not soluble
5 | MDDPNRIVSASRRPKALIRLLDSQQIEVVLHSRLSVEDVLRLVAEKVDLSFPDSQYFCLGFSDNLNNFHWLDGSVILYDLVASTSNPKGTLTLSHHVRFFVDTIYEVQCASTAKLFFFDIHNQLARHELLVTSEDYFELVAILVSVFVPDCQEHTTAEAISRIMPMSHPPYILLKTDQSEVERRVFEKFRYYRRLPVGTGMISFIKLAEKSESYGYRMYEALNENNDKCILSIGYKGIYIYRRSRHQNLITPYLAYPWRVIDNLYYRDKKFSIEIREPKNSLHSNSSIGTMPSAKIGDGSTSSLPMSSAKPMSTQTSEPQLPDVPEPNESLHNKTIDEFQKDQEKCDRLKARKAELEMRLRQKMQELKDVCVEEGDITGEMPVEINDVVLPGDDFPRLKRRVGTAYSIPDELIKADKADKMSQLETDVELHRRIVAAASRLATDKNTNKSVRKKRQKDLQAARLRLNRLEQGLQQMRHSASKPDISSLTSDSSNSWTASNSSGPMLTMAMTKSCPTTPRGSVPDLRNGLDDEKDEFDENVEDRVSRRAPSAISRHSLSQRYSGVSSSSTSSGSDSMGLGLPPRPTSRKSQQQQTTPFDDQLDNPMICEIPPPPSSAAAHPLLVTNLLSRGKTTGCRVLTEYYPVLKRIRTNY | not soluble
6 | MLIPSKLSRPVRLEHTVVRERLLAKLSGANNYRLVLITSPAGYGKTTLISQWAAGKNDLGWFSLDEGDNQQERFASYLIAAIQQATGNHCAASEAMVQKRQYASLSSLFAQLFIELADWQRPLYLVIDDYHLINNPVIHDAMRFFLRHQPENMTLVVLSRNLPQLGIANLRVRDQLLEIGSQQLAFTHQEAKQFFDCRLTSPIEADDSSRLCDDVAGWATALQLIALSARQNNSSAQHSARRFAGINASHLSDYLVDEVLDNVDARTRNFLLKSSLLRSMNDALIVRVTGEENGQMQLEEIERQGLFLQRMDDSGEWFRYHPLFGSFLRQRCQWELAVELPEIHRAAAESWMAQGFPSEAIHHALAAGDAKMLRDILLNHAWGMFNHSELGLLEQSLAALPWSNLLENPRLILLQAWLMQSQHRYSEVNTLLARAEQEMSVEMDTAMHGDFNALRAQVAINDGDQDEAERLSMVALEELPLANYYSRIVATSVHGEVLHCKGKLTKSLAVMQQTEQMARRHDVWHYALWSIIQQSEILFAQGFLQAAW | not soluble
7 | SEKVNQTFFLSHGSPTLSIDDSLEARQFFKSWTQKVLPQKPKSILVISAHWDTKFPSVNTVLRNNTIHDFSGFPDPMYKLKYEAPGAIELGKRVKELLMKEGGMKRVDEDTKRGLDHGAWVPLMLMYPEADIPICQLSVQSNQNGSYHYNMGKALASLKDEGVLIIGSGSATHNLRKLDFNITDGSPVPWALEFDHWLRDSLLQGRYGDVNEWEEKAPNAKMAHPWPEHLYPLHVVMGAAGGDAKAEQIHTSWQLGTLSYSSYSFTSSL | soluble
8 | MTDFSRTFSGTPSAVLPTANRFFRPPLPSAHVARPRLCRRLRDGLDGRLLLIAAPAGFGKSSLAIEFCESLDPRWQSLWLGLSSRESDPGRFLERLLDGLRQYHPTLGEEALGLLKMRQRHQPFAFETWLDDLLDELAPCLDPQRPLLLVLDDYHLAQGAVLDRCLQFLLNHLPEGLVLLVTSRQRPDWHLARLRLSRQLLELSEQDLRLTAEESGALMAASGLELDEDALDALLERSEGWVAGLRLWLLARGDPEEQVSPGVHGADELIRDYLLEEVIERQPPEVQAFLAQTARFERFCAELCDTVREAGDSAAILDHLQQHQVFLVPLDENGQWFRYHHLFSDLLLARPLPDFGPSAGSLHLRACGWFSRHGLLDQAVEQALRAGQPDVAASLVQNLSEEQLLAEQNIATLLRWKMDLPDSLLASTPRLILLYGWALALACQLDAAEELAGQLARFLPAPDESAQRDLLAQWQALSGVIARGRGDIDKAEAHCREALQDLAGERYGTRLQCLSTLSNLAVTRGDFWQA | not soluble
9 | MTEKLKNSKEVIAYIAECFPKCFTLEGEAKPLKIGIFQDLAERLNEDEKVSKTQLRAALRQYTSSWRYLHGVKPGAVRVDLDGNPCGELEEEHVEHAKATLAESKAKVQARRKEQAQKAREEGKAKAKPAANKKPQQPRRTNKPKVQKPTKPVETRALNADEITVGNAVNVNMGKGNMAATIVEINKDDVRVQLANGLQMVVKAEHLRA | soluble
10 | MSSETLEFSGCNFFRIRLAYSILSGRPIRIINIRKNDDRPGIRDFESKLIGLLEKVTNGTKVEISRTGTQVIFRPGMITGGVVNLDCGTERCISYFLEPLLLLSPFCKVPMVIKLKGVTNAPGEISVDGMKASWLKVYNKFVLNDEKLDIKIQARGLKPEGGGVVVFTAPIVKTLRPVKRQQVGKVCKIRGQAYVTKVTPSLAYRMIDAAKKAMHGYISDVYITVDQRKGDAGGASPGYGLFLTAETTEGVIYQAEAISRPKGESGVPILPEDIGIEAGHALLQQIYMGGALDSSAQILASTFMTLCPKDVSHFLYGPLPMYSVHALRHLKQFFEIEFKMEDFKKTLKEEEADLKTGSADKAMVTAVGVGYSNLNKTIL | not soluble
11 | MAGDGSLVASFGDIDRATTVTTIVAGVGSSNPEGWNTYVDRARTVSASTGSATVLWLGYQAPASIPAAVSGAAANRAAADLQRFQAALQSRNPHQRKVVMGYSYGSTVVGKAASSGELSADALVLVGSPGAGVSHSSQLGAPVYAVTGSADPIGFAGTQYDGIHGTDPTAALFGATVWDSPSTHSGYWNDQEFLGNVAEVVRGKLEHHHHHH | not soluble
12 | MSLANILAIDDSGLMQAFWVRILSRSQHNVITVSSGDEMRGVLATMNPQLIFLDLSFPGENGFELLQHIRSYQHCLEIPVIAVSGYAGEDTRQACREAGFTDFLAKPFSLAELRGMLARYLDHATEGHHHHHH | not soluble
13 | MKPLTYTLVVNGPQYGTQSARNAYLFAKALIEKGHILKSVFFYQDGVLNGSSTHVPANDEFNLLQGWQSLAQSHQVQLETCVAAALRRGVVSEQEASQHGLASHNLAAHFTQAGLGSLAQALLEQDRVVQF | soluble
14 | MGSSHHHHHHGGTGENLYFQGGSGSSVTPTIPFKAWLKLHAKAICQALPLSLLIVVEARDLYYRATWDVAPVPPSKFEVGDVIAVCNRWYTLPTWSHVVYSWLSKVLLKSCWDDVGVISSVKNGTPHILYVDFHGVHEQPLATFLETRCPRGAAVRKLRRDEGVPSPSPAIADLFRKEVEMISVEPWFLFSASMRGGNEHKYYEFCVRMHEQRCKIRSMLQRRQSRPAIEAQQTSLKEMEVMRQHLAKFVEPVTHFHLYNGSLVASFFATYGLLDREMPSPSRYVPQDFAHTIPFLGATTLDEPIVFFRN | not soluble
15 | MIGATGSGGTGGHNDVVRQGFICPFCMEDFGEYERLICHVENDHPEEDSSDLAGMFVSNVKGFFDKAKRGIQKLDAKKSIADLASNVETEFTETTEKLVERAPLPRIPKPLPPDEILPGTRRSKTREFLSTRELNINEVAVRTNMLIIRLDRLINGGPKDKDPVKRKEFEREVVPWLDDAEAVCCPLCASRFGLTRRRHHCRLCGRVLCHSCSKFLSFDTAKTLTSSSNPLGDTHIIVEEPNTVENEQELLQPEENGRRSFFSLSQKSMDKMKRAMAGAVQKVHSAATGEEIIAGALNEQDLSEHMRVCNLCLRDLHFRESQMDKKEPPEFVQQYDLMKVMIEEVKNLVPTYVRVVTSLKNGESVYSHKHGEELRSKCLEIQKSIDYVSKKIAEGANDKPNSAKEQQLRKNIRLYAVQALQGLIGQMESLPTAEECSNLIIKRKERRAKDFARVNRTVMKMSSSMPQLQEQHSHLNSTSSVSSFGGPSSIDDGWSAEDNDLVFEPSSIEDDTIQTDHPLYEQREQLRKFLFQASATGKLDEMDILERNLKEIEEEMMRLGLSC | not soluble
16 | MSPDEDLRLLYLRLIPQLAENRPEFQQAIADSPLFTAYMKLLKRQAELSPRILSALLSAISSIVRSHLPAYLKFQAKNGLTATEKLIQSTKDHKNAVKAGRMIVSFLYTLTDLQGIDEITEEIKNSILKIYTLLDGRSRFVDRADDSEETKEFYEETMKMIKFEIMQMHPDIITPQTRKLLEEHFKESNLRAGLMPIGGWPVIPKNEWPQPPQPPCHKANKNAEPKKEPEPAKKVAPKQETKVDQEAAELARKIQIEEDKTRKRHEIVARFSILDIYTKEELAEKLKLDAEMEMAEAQKVLKEIR | not soluble
17 | MWPAPRRVNLRSLGIAWPSPGGLDTLASNFPSEGCQNMNLYSLLSARAAGGKPVRVGLIGAGKFGSMVLAQAQRIAGFHMVAVADLNVGKARESFDRVGWPKERYDATSCADALKSGKTYVTDDVNELFACGEIECIIEATGHPLAGARHALGAIDHNKHVVMVNVEADVMVGPILAEKARAKGLIYSMAYGDQPALICELVDWARATGFEVVSAGKGMNFEPRYRYSTPDTVWSYFGWTDEEVAKGDFNPKMYNSFTDGTKAAIEMAAVANGTGLDCPDDGLAFPPAGLHDLARVFRPAADGGRMSRSGLVDIAASQEPDGREVFNNIRYGVFVTFKAHNDYARACFKQYGLLTDPSGWYASMWRPFHIIGLETSISVLSAVLRNEPTGCSKEFRGDAVATAKKDMQPGEMLDGEGGYAVWANAIPATRSLDIKALPIGLAHNVKLKRPIKKDQIVSFDDVELVSDLDVVKLRQDMEHQFRPQKDAAA | not soluble
18 | SQIFASDGKTQLARIVPPDGNRTEVPIDKIPEVTRNAVLAAEDREFYTNSGFSFTGFGRAILGQLTGDASAGGGSTITQQYVKNMVVGNDYSYMRKAKELVYSVKMANEWSKDEVLGAYLNTIYFGRNAYGIDAAAHAYFGVPASELNVGQSAMLAATIQRPSQLDPWSNR | not soluble
19 | MMTQIIHTEKAPAAIGPYVQAVDLGNLVLTSGQIPVNPATGEVPADIVAQARQSLENVKAIIEKAGLTAADIVKTTVFVKDLNDFAAVNAEYERFFKENNHPNFPARSCVEVARLPKDVGLEIEAIAVRK | soluble
